Laboratory results: patent US20220185907A1

Tests used:
[1] = biological target: CD38 on cells (Raji, Daudi, REH, CD38-transfected HEK293) (human) (UniProt P28907); assay: flow cytometry on Raji cells (express CD19 and CD38)
[2] = biological target: CD38 on cells (Raji, Daudi, REH, CD38-transfected HEK293) (human) (UniProt P28907); assay: flow cytometry on Raji cells; top asymptote fixed at about the maximum response of Darzalex
[3] = biological target: CD38 on cells (Raji, Daudi, REH, CD38-transfected HEK293) (human) (UniProt P28907); assay: flow cytometry on Raji cells (express CD19 and CD38), 11 concentrations from 30 ug/mL

Question: For Darzalex® (CD38 control) (antibody), which EC50 [1] is on record?
Answer: 1.27 nM

Question: And the Adjusted EC50 [2]?
Answer: 1.27 nM

Question: What about the EC50 [3] of the same substance?
Answer: 0.195 µg/mL

Question: And the Max MFI [3]?
Answer: 4.02e+06 MFI
